From US20120039932A1

Molecular target: human DC-SIGN (CD209), expressed on 293T cells (human) (UniProt Q9NNX6)
Test: cell-based or functional assay

UniProt Q9NNX6, sequence (Q9NNX6 whole entry): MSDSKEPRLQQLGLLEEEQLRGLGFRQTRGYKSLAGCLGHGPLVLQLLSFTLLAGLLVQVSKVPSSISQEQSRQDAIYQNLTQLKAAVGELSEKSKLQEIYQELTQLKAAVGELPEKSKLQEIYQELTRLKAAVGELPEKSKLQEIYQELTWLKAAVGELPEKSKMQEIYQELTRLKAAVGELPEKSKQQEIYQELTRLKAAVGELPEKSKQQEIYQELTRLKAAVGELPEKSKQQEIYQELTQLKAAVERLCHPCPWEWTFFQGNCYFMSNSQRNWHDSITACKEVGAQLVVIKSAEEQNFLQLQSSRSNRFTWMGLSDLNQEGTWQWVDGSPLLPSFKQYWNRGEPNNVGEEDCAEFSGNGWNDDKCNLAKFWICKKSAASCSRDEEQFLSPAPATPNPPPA

Row | Substance | GFU/mL on 293-hDC-SIGN cells (transduction titer) [GFU/mL] | Ratio (GFU/mL on 293-hDC-SIGN cells over 293T cells) | GFU/mL on hDC-SIGN cells (transduction titer) [GFU/mL] | Ratio (GFU/mL on hDC-SIGN cells over 293T cells)
1 | Sindbis virus HR strain envelope E2 glycoprotein, on pseudotyped lentiviral vector particles (from UniProt P03316 329-751) | 6.4e+06 | 9.4 | – | –
2 | VSV-G envelope glycoprotein, on pseudotyped lentiviral vector particles (from UniProt P03522 17-511) | – | – | 1.35e+08 | 1.19
